# Assay results as given in patent US20230372503A1, “CONJUGATE OF FUNCTIONAL POLYPEPTIDE VARIANT, AND USE THEREOF” (PROABTECH INC., priority 2020, published 2023).
# Assay: Pharmacokinetics (PK) of hGH variant-HSA conjugate, blood level by sandwich ELISA
# Format: in vivo
# Conditions: 7-week-old male ICR mice, 65 nmol/kg intravenous tail injection, blood 0.5-24 h
# Procedure: For pharmacokinetic evaluation of the hGH variant-HSA conjugate, 7-week-old male ICR mice (n=6) were used. 65 nmol/kg each of hGH variant-HSA (L52) and hGH variant-HSA (Q141) was intravenously injected into the tail, blood collection was performed at 0.5, 4, 8, 12, and 24 hours after injection, and centrifugation was performed at 2,500 rpm for 10 minutes, followed by storing at −20° C. As a comparative group, Norditropin (somatropin, Novo Nordisk) was administered at the same concentration, and then compared with the above sample.
# The hGH variant-HSA conjugate in blood was analyzed by sandwich ELISA (human growth hormone (GH) DouSet ELISA, R&D Systems). An anti-hGH capture antibody was added to coat an immunoplate at 4° C. overnight, and a reaction was blocked with 1% BSA in PBS at 37° C. for 1 hour. The blood sample collected and was diluted on the washed plate and left for 2 hours, and then treated with an anti-hGH detection antibody at room temperature for 2 hours. After treating the detection antibody with streptavidin-HRP at room temperature for 1 hour, 100 μL of a substrate was treated for 5 minutes and then 2N H2SO4 was treated to stop the reaction. Afterward, a microplate reader (Hidexsense, Finland) was used to measure an optical density at 450 nm. […]
substance,measurement,value
"Norditropin: comparative group, Norditropin (somatropin, Novo Nordisk)",half-life,30 min
